Source: US20240270871A1 (HUMMINGBIRD BIOSCIENCE PTE, published 2024)
Where two headings read alike, the source gives them in different places.

Legend:
Assay in all cases: BLI (Octet QK384), IgG captured on anti-human Fc (AHC) biosensors, recombinant human HER3 as analyte, 1:1 global fit, averaged
recombinant human HER3 [1] = molecular target: T1, recombinant human HER3 (human, UniProt P21860 20-643, limits assumed)
Procedure: (§1) Biosensors were first dipped in wells containing assay buffer for 60 s to obtain baseline readings, and then IgGs (at a concentration of 12.5 nM) were captured for 120 s, followed by PBST wash for 60 s to remove any unbound antibody or non-specifically-bound protein and the second baseline was collected after IgG capture. Kinetic measurements for antigen binding were performed by dipping each of the antibody-coated biosensors into wells containing a single serial diluted concentration of recombinant human HER3 for 120 s, followed by a 120 s dissociation time by transferring the biosensors into assay buffer containing wells. AHC biosensors were regenerated for 5 s×4 times after each kinetic cycle using 10 mM glycine pH 1.7 to remove bound protein and washed with assay buffer before a new kinetic cycle. Six 1:2 serial dilutions of recombinant human HER3 (at concentrations ranging from 500 nM to 16 nM), were used to ensure an ideal concentration range of antigen, and binding signal spanning the dynamic range of the assay. Measurements for all sensors were generated in real time in parallel. Data analysis was preformed using Octet QK384 analysis 9.0 software (Pall ForteBio) according to manufacturer's recommendations for analysing a high-affinity antigen-antibody kinetics. […]

recombinant human HER3 [2] = molecular target: T1, recombinant human HER3; remark: listed apart in the source
Procedure: as §1

recombinant human HER3 [3] = molecular target: T1, recombinant human HER3; remark: listed apart in the source
Procedure: as §1

recombinant human HER3 [4] = molecular target: T1, recombinant human HER3; remark: listed apart in the source
Procedure: as §1

recombinant human HER3 [5] = molecular target: T1, recombinant human HER3; remark: listed apart in the source
Procedure: as §1

recombinant human HER3 [6] = molecular target: T1, recombinant human HER3; remark: listed apart in the source
Procedure: as §1

recombinant human HER3 [7] = molecular target: T1, recombinant human HER3; remark: listed apart in the source
Procedure: as §1

Measured: Kd

T1 sequence (P21860 20-643 limits assumed): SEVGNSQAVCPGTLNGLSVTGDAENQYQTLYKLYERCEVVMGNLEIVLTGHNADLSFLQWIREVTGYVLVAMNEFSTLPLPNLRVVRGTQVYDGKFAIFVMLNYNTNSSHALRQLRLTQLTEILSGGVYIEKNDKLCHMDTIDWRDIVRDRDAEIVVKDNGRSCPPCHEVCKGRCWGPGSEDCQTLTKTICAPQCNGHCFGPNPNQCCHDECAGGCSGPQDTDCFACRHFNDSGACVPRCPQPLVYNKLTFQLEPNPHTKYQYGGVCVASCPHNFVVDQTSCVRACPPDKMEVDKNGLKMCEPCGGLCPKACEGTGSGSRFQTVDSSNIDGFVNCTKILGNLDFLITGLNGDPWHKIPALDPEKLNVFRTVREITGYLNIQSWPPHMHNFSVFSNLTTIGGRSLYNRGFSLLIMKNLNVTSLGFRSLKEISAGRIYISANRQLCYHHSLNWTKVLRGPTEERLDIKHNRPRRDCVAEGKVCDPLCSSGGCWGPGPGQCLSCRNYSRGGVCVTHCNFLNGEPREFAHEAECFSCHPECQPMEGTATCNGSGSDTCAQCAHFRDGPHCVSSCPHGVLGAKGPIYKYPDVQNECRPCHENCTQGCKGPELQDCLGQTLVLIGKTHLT

B1: 10D1F hIgG1 (antibody, V domains shown)
VH: QVQLQESGPGLVKPSQTLSLTCTVSGYSITSGYSWHWIRQHPGKGLEWIGSIRYSGGTDYNPSLKSLVTISADTSKNQFSLKLSSVTAADTAVYYCARMTTAPWYPFDYWGQGTTVTVSS
VL: DIQMTQSPSSVSASVGDRVTITCKASQIVGSNVAWYQQKPGKAPEPLIYSASYLYSGVPSRFSGSGSGTDFTLTISSLQPEDFATYYCQQYSSHPLTFGQGTKLEIKR
notes: also called 10D1F.A; antibody product of clones 2-1.1, 2-1.2, 2-1.3, 2-1.4, 2-3.12, 2-3.13, 2-3.15
< 1 pM: all assays above
